# Results taken from article PMC9665036.
# Key:
# [1] = target: SpyCatcher-AP205 capsid virus-like particle (cVLP) (Acinetobacter phage AP205); assay: covalent SpyTag-SpyCatcher coupling, SDS-PAGE densitometry; SpyTagged sE2 mixed with SpyCatcher-AP205 cVLP at molar ratio 2:1 (antigen per cVLP binding site), 36 h at 4 °C; Coomassie SDS-PAGE, densitometry (ImageQuantTL)
# [2] = target: oligomeric soluble HCV E2 (sE2, Con1 isolate, genotype 1b) with C-terminal 6x His tag and SpyTag, SEC peak 2 (Hepatitis C virus, isolate Con1 (genotype 1b)) (UniProt Q9WMX2); assay: non-reducing SDS-PAGE; SEC peaks of sE2 in SDS-PAGE, Coomassie staining, with or without reducing agent (DTT)
# [3] = target: oligomeric soluble HCV E2 (sE2, Con1 isolate, genotype 1b) with C-terminal 6x His tag and SpyTag, SEC peak 2 (Hepatitis C virus, isolate Con1 (genotype 1b)) (UniProt Q9WMX2); assay: SEC; analytical SEC of the purified sE2 SEC peak fractions against marker proteins of known size
substance,measurement,setting,value
"monomeric soluble HCV E2 (sE2, Con1 isolate, genotype 1b) with C-terminal 6x His tag and SpyTag, SEC peak 1 (from UniProt Q9WMX2 384-661) (domain or fragment)",coupling efficiency,[1],60%
"oligomeric soluble HCV E2 (sE2, Con1 isolate, genotype 1b) with C-terminal 6x His tag and SpyTag, SEC peak 2 (from UniProt Q9WMX2 384-661) (domain or fragment)",stoichiometry N,[2],2
same,stoichiometry N,[3],4
same,coupling efficiency,[1],60%
